Legend:
[1] = biological target: T1, recombinant human CD3 epsilon/delta heterodimer (human, UniProt P07766 23-126; P04234 22-105); assay: Octet BLI, mAb on FAB2G sensor, hCD3 E/D 200-50 nM; R^2 0.96
T1 construct: Recombinant protein in solution (200-50 nM) in the Octet assay; also called hCD3 E/D; human CD3E/D
Protocol: Samples were evaluated by flow cytometry analysis against Jurkat and human Pan-T cells (FIG. 1B) as well as by Octet against recombinant human CD3 proteins to evaluate apparent affinities and binding off-rates (Table 6, infra).

[2] = biological target: T2, recombinant human CD3 epsilon/gamma heterodimer (human, UniProt P07766 23-126; P09693 23-116); assay: Octet BLI, mAb on FAB2G sensor, hCD3 E/G 200-50 nM; R^2 0.34
T2 construct: Recombinant protein in solution (200-50 nM) in the Octet assay; also called hCD3 E/G

[3] = biological target: T3, recombinant CD3 proteins (UniProt P07766 23-126); assay: Octet BLI, recombinant CD3; Full R^2 0.603*
T3 construct: elsewhere it uses human CD3 E/D and E/G heterodimers

[4] = biological target: T3, recombinant CD3 proteins; assay: Octet BLI, recombinant CD3; Full R^2 0.974
[5] = biological target: T3, recombinant CD3 proteins; assay: Octet BLI, recombinant CD3; Full R^2 0.984
[6] = biological target: T3, recombinant CD3 proteins; assay: Octet BLI, recombinant CD3; Full R^2 0.989
[7] = biological target: T3, recombinant CD3 proteins; assay: Octet BLI, recombinant CD3; Full R^2 0.990
[8] = biological target: T3, recombinant CD3 proteins; assay: Octet BLI, recombinant CD3; Full R^2 0.986

T2 sequence (P07766 23-126, chain 1 of 2): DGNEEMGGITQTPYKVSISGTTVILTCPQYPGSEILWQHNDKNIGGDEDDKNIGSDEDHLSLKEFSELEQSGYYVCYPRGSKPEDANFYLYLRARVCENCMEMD
T2 sequence (P09693 23-116, chain 2 of 2): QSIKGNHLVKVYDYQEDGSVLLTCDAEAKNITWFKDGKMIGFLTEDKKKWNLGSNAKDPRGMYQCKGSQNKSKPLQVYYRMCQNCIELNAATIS
T3 sequence (P07766 23-126): as the sequence (P07766 23-126, chain 1 of 2) above
T1 sequence (P07766 23-126, stated change not applied, chain 1 of 2): as the sequence (P07766 23-126, chain 1 of 2) above
T1 sequence (P04234 22-105, stated change not applied, chain 2 of 2): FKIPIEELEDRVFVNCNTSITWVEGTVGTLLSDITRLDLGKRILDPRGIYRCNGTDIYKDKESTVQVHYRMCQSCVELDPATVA

B1: ABL-CD3-13 (antibody, V domains shown)
VH: EVQLVESGGGLVQPGGSLRLSCAASGFTFSNYWMSWVRQAPGKGLEWVANIKEDGSEKYYVDSVKGRFTISRDNAKNSLYLQMNSLTAEDTSVYYCARERRTGYFDYWGQGTLVTVSS
VL: DIQMTQSPSTLSASVGDRVTITCRASQSISNWLAWYQQKPGKAPNLLIYKASSLESGVPSRFSGSGSGTEFTLTISSLQPDDFANYYCQQYKSYSWTFGQGTKVEIK
notes: Chimeric hybridoma mAb: human V, CH1, upper hinge; mouse middle hinge, CH2, CH3
B1 showed a Kd [1] of 23.4 nM, a Response [1] of 0.08 and a koff [1] of 0.000728 s⁻¹. The kon [1] was 31200 M⁻¹ s⁻¹, the Kd [2] was less than 0.001 nM and the koff [2] was less than 1e-07 s⁻¹. The kon [2] was 26700 M⁻¹ s⁻¹.

B2: CD3 × CD33-BspAb99 (bispecific antibody)
chain 1: not shown
chain 2: EVQLVQSGAEVKKPGSSVKVSCKASGYTITDSNIHWVRQAPGQSLEWIGYIYPYNGGTDYNQKFKNRATLTVDNPTNTAYMELSSLRSEDTAFYYCVNGNPWLAYWGQGTLVTVSSASTKGPSVFPLAPSSKSTSGGTAALGCLVKDYFPEPVTVSWNSGALTSGVHTFPAVLQSSGLYSLSSVVTVPSSSLGTQTYICNVNHKPSNTKVDKRVEPKSCDKTHTCPPCPAPEFEGGPSVFLFPPKPKDTLMISRTPEVTCVVVDVSHEDPEVKFNWYVDGVEVHNAKTKPREEQYNSTYRVVSVLTVLHQDWLNGKEYKCKVSNKALPASIEKTISKAKGQPREPQVCTLPPSREEMTKNQVSLSCAVKGFYPSDIAVEWESNGQPENNYKTTPPVLDSDGSFFLVSKLTVDKSRWQQGNVFSCSVMHEALHNRFTQKSLSLSPGK
chain 3: DIQLTQSPSTLSASVGDRVTITCRASESLDNYGIRFLTWFQQKPGKAPKLLMYAASNQGSGVPSRFSGSGSGTEFTLTISSLQPDDFATYYCQQTKEVPWSFGQGTKVEVKRTVAAPSVFIFPPSDEQLKSGTASVVCLLNNFYPREAKVQWKVDNALQSGNSQESVTEQDSKDSTYSLSSTLTLSKADYEKHKVYACEVTHQGLSSPVTKSFNRGEC
B2 was tested, and the Kd [3] was 30.7 nM, the koff [3] was 0.00421 s⁻¹ and the kon [3] was 137000 M⁻¹ s⁻¹.

B3: CD3 × CD33-BspAb100 (bispecific antibody)
chain 1: EVQLVESGGGLVKPGGSLRLSCAASGFTFSNYYMNWVRQAPGKCLERVSSISSSSNYIYYADSVKGRFTISRDNAKNSLYLQMNSLRAEDTAVYYCARDRRELPLDYWGQGTVVTVSSGGGGSGGGGSGGGGSGGGGSSYELTQPPSVSVSPGQTARITCSGDALPKKYAYWYQQKSGQAPVLVIYEDSKRPSGIPERFSGSSSGTMATLTISGAQVEDEADYYCYSTDSSGNHWVFGCGTKLTVLDKTHTCPPCPAPEFEGGPSVFLFPPKPKDTLMISRTPEVTCVVVDVSHEDPEVKFNWYVDGVEVHNAKTKPREEQYNSTYRVVSVLTVLHQDWLNGKEYKCKVSNKALPASIEKTISKAKGQPREPQVYTLPPCREEMTKNQVSLWCLVKGFYPSDIAVEWESNGQPENNYKTTPPVLDSDGSFFLYSKLTVDKSRWQQGNVFSCSVMHEALHNHYTQKSLSLSPGK
chain 2: B2 chain 2
chain 3: B2 chain 3
B3 showed a Kd [4] of 235 nM, a koff [4] of 0.0831 s⁻¹ and a kon [4] of 354000 M⁻¹ s⁻¹.

B4: CD3 × CD33-BspAb117 (bispecific antibody)
chain 1: NFMLTQPHSVSESPGKTVTISCTRSSGSIASNYVQWYQQRPGSSPTSVIYEDNQRPSGVPDRFSGSIDSSSNSASLTISGLKTEDEADYYCQSYDRSNRVFGCGTKLTVLGGGGSGGGGSGGGGSGGGGSEVQLVESGGGLVKPGGSLRLSCAASGLTFSTYSMNWVRQAPGKCLEWVSSISSSGSYVYYADSVKGRFTMSRDNAKNSLYLQMNSLRAEDTAVYYCARERRELLFDYWGQGTLVTVSSDKTHTCPPCPAPEFEGGPSVFLFPPKPKDTLMISRTPEVTCVVVDVSHEDPEVKFNWYVDGVEVHNAKTKPREEQYNSTYRVVSVLTVLHQDWLNGKEYKCKVSNKALPASIEKTISKAKGQPREPQVYTLPPCREEMTKNQVSLWCLVKGFYPSDIAVEWESNGQPENNYKTTPPVLDSDGSFFLYSKLTVDKSRWQQGNVFSCSVMHEALHNHYTQKSLSLSPGK
chain 2: B2 chain 2
chain 3: B2 chain 3
In the case of B4, the Kd [5] is reported as 16.6 nM, the koff [5] is reported as 0.00554 s⁻¹ and the kon [5] is reported as 335000 M⁻¹ s⁻¹.

B5: CD3 × CD33-BspAb118 (bispecific antibody)
chain 1: FMLTQPHSVSESPGKTVTISCTRSSGSIASNYVQWYQQRPGSSPTTVIYEDNQRPSGVPDRFSGSIDSSSNSASLTISGLQTEDEADYYCQSYDSSNRVFGCGTKLTVLGGGGSGGGGSGGGGSGGGGSEVQLVESGGGLVKPGGSLRLSCVASGFTFSRYSMNWVRQAPGKCLEWVSSISSSSRYTYYADSLKGRFIMSRDNAKNSLFLQMNSLRAEDTAVYYCARNLYNALDYWGQGTLVTVSSDKTHTCPPCPAPEFEGGPSVFLFPPKPKDTLMISRTPEVTCVVVDVSHEDPEVKFNWYVDGVEVHNAKTKPREEQYNSTYRVVSVLTVLHQDWLNGKEYKCKVSNKALPASIEKTISKAKGQPREPQVYTLPPCREEMTKNQVSLWCLVKGFYPSDIAVEWESNGQPENNYKTTPPVLDSDGSFFLYSKLTVDKSRWQQGNVFSCSVMHEALHNHYTQKSLSLSPGK
chain 2: B2 chain 2
chain 3: B2 chain 3
Work on B5 yielded a Kd [6] of 1.91 nM, a koff [6] of 0.000767 s⁻¹ and a kon [6] of 403000 M⁻¹ s⁻¹.

B6: CD3 × CD33-BspAb115 (bispecific antibody)
chain 1: NFMLTQPHSVSESPGKTVTISCTRTSGSIASNYVQWYQQRPGSSPTTVIYEDNQRPSGVPDRFSGSIDSSSNSASLTISGLKTEDEAAYYCQSYDRSNRVFGCGTKLTVLGGGGSGGGGSGGGGSGGGGSQVQLQESGPGLVKPSETLSLTCTVSGGSISSYYWSWIRQPAGKCLEWIGRIYTSGSTKYNPSLKSRVTMSVDTSKNQFSLKLISVTAADTAVYFCARERIRDLYFDYWGQGTLVTVSSDKTHTCPPCPAPEFEGGPSVFLFPPKPKDTLMISRTPEVTCVVVDVSHEDPEVKFNWYVDGVEVHNAKTKPREEQYNSTYRVVSVLTVLHQDWLNGKEYKCKVSNKALPASIEKTISKAKGQPREPQVYTLPPCREEMTKNQVSLWCLVKGFYPSDIAVEWESNGQPENNYKTTPPVLDSDGSFFLYSKLTVDKSRWQQGNVFSCSVMHEALHNHYTQKSLSLSPGK
chain 2: B2 chain 2
chain 3: B2 chain 3
For B6, the Kd [7] was 16.2 nM, the koff [7] was 0.00402 s⁻¹ and the kon [7] was 249000 M⁻¹ s⁻¹.

B7: CD3 × CD33-BspAb119 (bispecific antibody)
chain 1: NFMLTQPHSVSESPGKTVTISCTRSSGSIASNYVQWYQQRPGSSPTTVIYEDNQRPSGVPDRFSGSIDSSSNSASLTISGLKTEDEADYYCQSYDSSNRVFGCGTKLTVLGGGGSGGGGSGGGGSGGGGSEVQVAESGGGLVKPGGSLRLSCAASGFTFSRYSMNWVRQAPGKCLEWVSSISSSGSYTYYADSVKGRFTISRDNAKNSLYLQMNSLRAEDTAVYYCVRERGKGAGMDVWGQGTTVTVSSDKTHTCPPCPAPEFEGGPSVFLFPPKPKDTLMISRTPEVTCVVVDVSHEDPEVKFNWYVDGVEVHNAKTKPREEQYNSTYRVVSVLTVLHQDWLNGKEYKCKVSNKALPASIEKTISKAKGQPREPQVYTLPPCREEMTKNQVSLWCLVKGFYPSDIAVEWESNGQPENNYKTTPPVLDSDGSFFLYSKLTVDKSRWQQGNVFSCSVMHEALHNHYTQKSLSLSPGK
chain 2: B2 chain 2
chain 3: B2 chain 3
B7 was tested, and the Kd [8] was 21.7 nM, the koff [8] was 0.00688 s⁻¹ and the kon [8] was 317000 M⁻¹ s⁻¹.

Source: US20260167721A1 (ABLEXIS, published 2026)
